Laboratory results published in the supplement of paper PMC10065799, “High-throughput profiling of sequence recognition by tyrosine kinases and SH2 domains using bacterial peptide display” (eLife, 2023).

Tests used:
[1] = test system: AncSZ; test: phosphorylation enrichment, bacterial display (enrichment ratio); higher = better substrate or ligand; peptides without Tyr show the background
[2] = molecular target: EPHB1 (UniProt P54762); test: as above
[3] = molecular target: EPHB2 (UniProt P29323); test: as above
[4] = molecular target: FGFR1 (UniProt P11362); test: as above
[5] = molecular target: FGFR3 (UniProt P22607); test: as above
[6] = test system: Fer (mouse); test: as above
[7] = molecular target: Fes (UniProt P07332); test: as above
[8] = molecular target: Fyn (UniProt P06241); test: as above
[9] = molecular target: Hck (UniProt P08631); test: as above
[10] = molecular target: Jak2 (UniProt O60674); test: as above
[11] = molecular target: MERTK (UniProt Q12866); test: as above
[12] = test system: c-Abl (mouse); test: as above
[13] = test system: c-Src; test: as above
[14] = molecular target: Grb2 SH2 (UniProt P62993); test: SH2 binding enrichment of the phosphorylated peptide, bacterial display (enrichment ratio); higher = better substrate or ligand; peptides without Tyr show the background
[15] = molecular target: SHP2-C SH2; test: as above
[16] = molecular target: c-Src SH2; test: as above
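Throughout, for SH2 binding enrichment of the phosphorylated peptide, bacterial display: peptide library displayed on the E. coli surface as eCPX fusions, selected cells deep-sequenced, score is each peptide's frequency after selection divided by its frequency in the input.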
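Throughout, for phosphorylation enrichment, bacterial display: 11-residue human phosphosite peptides and single-mutation variants displayed on the E. coli surface, counted by deep sequencing, each peptide's frequency after selection divided by its frequency in the unselected input library; frequency after pTyr selection over input frequency; kinase dosed for 20-30% of maximal phosphorylation in three min.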

Chain of MERTK (Q12866 whole entry, looked up): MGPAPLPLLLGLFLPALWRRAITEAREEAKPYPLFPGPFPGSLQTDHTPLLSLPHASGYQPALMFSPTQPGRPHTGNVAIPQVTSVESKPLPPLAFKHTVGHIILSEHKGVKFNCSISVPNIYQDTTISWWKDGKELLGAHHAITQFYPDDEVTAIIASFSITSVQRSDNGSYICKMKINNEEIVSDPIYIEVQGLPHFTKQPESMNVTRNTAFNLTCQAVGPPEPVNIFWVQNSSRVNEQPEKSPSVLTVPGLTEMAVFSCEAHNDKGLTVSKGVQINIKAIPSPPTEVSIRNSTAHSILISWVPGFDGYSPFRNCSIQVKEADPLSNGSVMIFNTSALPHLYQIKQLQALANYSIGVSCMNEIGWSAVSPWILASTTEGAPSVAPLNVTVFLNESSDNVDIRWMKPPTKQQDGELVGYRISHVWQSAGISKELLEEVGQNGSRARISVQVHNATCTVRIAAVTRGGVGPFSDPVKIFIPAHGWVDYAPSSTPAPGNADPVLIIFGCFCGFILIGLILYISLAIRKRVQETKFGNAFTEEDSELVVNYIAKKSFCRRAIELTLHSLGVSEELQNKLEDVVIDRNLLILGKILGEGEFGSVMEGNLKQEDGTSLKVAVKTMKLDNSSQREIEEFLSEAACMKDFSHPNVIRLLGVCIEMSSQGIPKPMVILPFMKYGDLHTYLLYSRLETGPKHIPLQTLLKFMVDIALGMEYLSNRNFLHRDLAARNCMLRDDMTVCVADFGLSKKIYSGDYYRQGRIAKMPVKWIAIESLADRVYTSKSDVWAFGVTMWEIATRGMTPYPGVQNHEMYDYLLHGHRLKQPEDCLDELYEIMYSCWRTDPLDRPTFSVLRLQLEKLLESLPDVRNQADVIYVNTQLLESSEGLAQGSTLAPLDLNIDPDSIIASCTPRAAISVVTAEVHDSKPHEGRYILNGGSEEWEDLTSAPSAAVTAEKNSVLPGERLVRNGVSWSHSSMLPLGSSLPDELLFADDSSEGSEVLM
Chain of Grb2 SH2 (P62993 whole entry, looked up): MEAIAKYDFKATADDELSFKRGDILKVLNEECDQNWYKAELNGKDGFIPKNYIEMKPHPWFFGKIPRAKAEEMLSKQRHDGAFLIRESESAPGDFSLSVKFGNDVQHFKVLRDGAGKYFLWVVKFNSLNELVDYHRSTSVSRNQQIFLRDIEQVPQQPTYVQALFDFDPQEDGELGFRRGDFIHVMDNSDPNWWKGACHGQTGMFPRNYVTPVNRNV
Chain of Hck (P08631 whole entry, looked up): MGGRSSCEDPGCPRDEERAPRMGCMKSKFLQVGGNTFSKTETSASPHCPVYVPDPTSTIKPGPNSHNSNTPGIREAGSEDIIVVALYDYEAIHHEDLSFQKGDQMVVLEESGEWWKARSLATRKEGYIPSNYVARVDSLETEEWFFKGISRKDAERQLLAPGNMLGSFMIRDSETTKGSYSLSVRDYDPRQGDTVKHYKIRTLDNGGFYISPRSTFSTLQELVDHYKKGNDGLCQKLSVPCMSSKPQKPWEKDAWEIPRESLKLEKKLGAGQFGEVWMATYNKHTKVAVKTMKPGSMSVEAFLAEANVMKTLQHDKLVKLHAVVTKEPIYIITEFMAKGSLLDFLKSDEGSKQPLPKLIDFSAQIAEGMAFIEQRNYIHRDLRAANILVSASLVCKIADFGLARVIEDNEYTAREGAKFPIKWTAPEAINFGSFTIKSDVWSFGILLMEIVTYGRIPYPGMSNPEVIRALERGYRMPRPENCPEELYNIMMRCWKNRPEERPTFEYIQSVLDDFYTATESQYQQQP
Chain of Fes (P07332 whole entry, looked up): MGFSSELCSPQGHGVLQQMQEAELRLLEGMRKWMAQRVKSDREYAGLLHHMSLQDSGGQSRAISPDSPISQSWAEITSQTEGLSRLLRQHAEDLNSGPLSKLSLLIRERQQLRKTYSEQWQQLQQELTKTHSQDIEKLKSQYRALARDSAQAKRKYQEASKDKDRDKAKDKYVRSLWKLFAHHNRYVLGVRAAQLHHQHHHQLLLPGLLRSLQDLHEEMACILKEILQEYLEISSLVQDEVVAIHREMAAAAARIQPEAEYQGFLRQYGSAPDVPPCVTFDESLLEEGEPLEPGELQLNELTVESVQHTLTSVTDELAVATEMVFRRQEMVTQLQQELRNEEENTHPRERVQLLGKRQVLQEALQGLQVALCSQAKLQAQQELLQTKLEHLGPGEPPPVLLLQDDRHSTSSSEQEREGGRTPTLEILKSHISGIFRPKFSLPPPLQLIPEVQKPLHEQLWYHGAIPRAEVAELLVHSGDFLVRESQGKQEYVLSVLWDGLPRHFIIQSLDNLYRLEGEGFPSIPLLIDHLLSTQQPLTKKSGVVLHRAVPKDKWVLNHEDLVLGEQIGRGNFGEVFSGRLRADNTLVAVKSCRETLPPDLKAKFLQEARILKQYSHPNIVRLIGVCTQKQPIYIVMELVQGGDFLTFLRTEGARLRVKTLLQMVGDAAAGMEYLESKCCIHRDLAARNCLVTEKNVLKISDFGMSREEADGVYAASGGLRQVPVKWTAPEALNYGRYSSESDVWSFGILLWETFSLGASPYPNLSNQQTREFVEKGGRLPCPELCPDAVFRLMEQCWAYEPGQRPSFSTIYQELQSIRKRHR
Chain of EPHB1 (P54762 whole entry, looked up): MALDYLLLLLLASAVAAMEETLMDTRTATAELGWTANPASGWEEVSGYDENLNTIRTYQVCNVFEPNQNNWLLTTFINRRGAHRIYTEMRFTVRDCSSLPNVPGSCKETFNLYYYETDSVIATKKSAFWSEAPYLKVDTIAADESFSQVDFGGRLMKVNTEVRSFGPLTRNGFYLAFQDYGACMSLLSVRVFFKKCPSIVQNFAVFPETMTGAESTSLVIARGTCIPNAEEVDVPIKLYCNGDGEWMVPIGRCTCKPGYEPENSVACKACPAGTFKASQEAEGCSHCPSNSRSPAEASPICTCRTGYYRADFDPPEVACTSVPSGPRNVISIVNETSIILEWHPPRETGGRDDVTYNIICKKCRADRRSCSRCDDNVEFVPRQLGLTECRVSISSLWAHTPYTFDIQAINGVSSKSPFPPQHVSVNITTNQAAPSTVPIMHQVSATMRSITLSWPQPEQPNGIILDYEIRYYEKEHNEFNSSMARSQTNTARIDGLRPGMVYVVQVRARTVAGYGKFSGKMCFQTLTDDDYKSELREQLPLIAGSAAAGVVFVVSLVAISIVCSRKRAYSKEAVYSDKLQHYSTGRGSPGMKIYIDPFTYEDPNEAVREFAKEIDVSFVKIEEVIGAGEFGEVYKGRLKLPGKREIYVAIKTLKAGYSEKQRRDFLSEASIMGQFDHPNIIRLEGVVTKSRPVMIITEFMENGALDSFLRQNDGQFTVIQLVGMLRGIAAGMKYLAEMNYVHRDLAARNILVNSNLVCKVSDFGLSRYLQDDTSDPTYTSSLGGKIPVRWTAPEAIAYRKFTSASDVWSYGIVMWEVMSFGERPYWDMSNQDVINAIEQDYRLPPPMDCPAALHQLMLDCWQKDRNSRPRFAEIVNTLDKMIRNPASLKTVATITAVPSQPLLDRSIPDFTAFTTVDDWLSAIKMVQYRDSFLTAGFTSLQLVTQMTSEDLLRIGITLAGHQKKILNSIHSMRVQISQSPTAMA
Chain of Jak2 (O60674 whole entry, looked up): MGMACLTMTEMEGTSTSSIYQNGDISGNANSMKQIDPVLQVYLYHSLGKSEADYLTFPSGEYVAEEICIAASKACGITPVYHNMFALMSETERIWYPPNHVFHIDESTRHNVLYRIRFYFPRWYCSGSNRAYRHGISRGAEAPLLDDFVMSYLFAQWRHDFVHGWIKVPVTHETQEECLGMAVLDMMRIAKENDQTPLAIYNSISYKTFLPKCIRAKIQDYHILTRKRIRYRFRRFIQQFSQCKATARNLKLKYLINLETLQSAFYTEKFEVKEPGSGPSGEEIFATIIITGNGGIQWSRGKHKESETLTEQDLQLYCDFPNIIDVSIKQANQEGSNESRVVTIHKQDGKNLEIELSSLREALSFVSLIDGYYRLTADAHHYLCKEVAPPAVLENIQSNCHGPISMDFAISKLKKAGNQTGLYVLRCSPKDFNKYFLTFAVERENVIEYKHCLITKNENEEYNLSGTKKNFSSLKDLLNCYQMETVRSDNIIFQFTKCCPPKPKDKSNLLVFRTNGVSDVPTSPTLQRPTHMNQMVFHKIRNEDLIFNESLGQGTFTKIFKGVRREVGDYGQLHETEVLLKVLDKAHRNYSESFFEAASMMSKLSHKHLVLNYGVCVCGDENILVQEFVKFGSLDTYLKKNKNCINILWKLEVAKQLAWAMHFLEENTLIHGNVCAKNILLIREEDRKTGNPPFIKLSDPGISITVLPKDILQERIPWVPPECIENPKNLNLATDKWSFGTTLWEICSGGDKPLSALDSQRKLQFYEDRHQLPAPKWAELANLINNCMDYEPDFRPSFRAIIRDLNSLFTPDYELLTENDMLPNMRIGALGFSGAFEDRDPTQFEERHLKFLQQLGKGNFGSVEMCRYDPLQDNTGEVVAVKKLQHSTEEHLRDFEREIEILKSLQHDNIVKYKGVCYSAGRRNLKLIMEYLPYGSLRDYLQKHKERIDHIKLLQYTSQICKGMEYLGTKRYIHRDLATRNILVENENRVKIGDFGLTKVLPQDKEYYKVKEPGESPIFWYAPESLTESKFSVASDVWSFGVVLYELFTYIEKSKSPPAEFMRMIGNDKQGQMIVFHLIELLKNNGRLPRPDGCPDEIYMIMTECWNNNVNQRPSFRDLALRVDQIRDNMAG

| Sequence | phosphorylation enrichment [1] | phosphorylation enrichment [2] | phosphorylation enrichment [3] | phosphorylation enrichment [4] | phosphorylation enrichment [5] | phosphorylation enrichment [6] | phosphorylation enrichment [7] | phosphorylation enrichment [8] | phosphorylation enrichment [9] | phosphorylation enrichment [10] | phosphorylation enrichment [11] | phosphorylation enrichment [12] | phosphorylation enrichment [13] | SH2 binding enrichment [14] | SH2 binding enrichment [15] | SH2 binding enrichment [16] |
| --- | --- | --- | --- | --- | --- | --- | --- | --- | --- | --- | --- | --- | --- | --- | --- | --- |
| QRRLVYYERGA [RYR1_Y245_G248R] | 0.427 | 0.448 | 0.345 | 0.499 | 0.48 | 0.226 | 0.537 | 0.533 | 0.53 | 0.391 | 0.319 | 0.368 | 0.426 | 0.951 | 0.677 | 0.662 |
| QRVLLYVQRET [GRHL3_Y518_R520Q] | 1.82 | 1.04 | 0.763 | 0.855 | 1.13 | 0.885 | 1.89 | 0.673 | 0.509 | 1.89 | 0.452 | 1.36 | 0.57 | 1.66 | 1.52 | 1.03 |
| QSPQLYKQLCI [DARS1_Y253_M256L] | 1.02 | 0.511 | 0.957 | 0.653 | 1.05 | 0.483 | 1.12 | 0.719 | 0.706 | 0.875 | 0.432 | 0.449 | 0.53 | 0.585 | 0.625 | 0.432 |
| QSSALYEDHFL [ASS1_Y83_R86H_YF] | 1.07 | 5.92 | 4.17 | 0.654 | 0.46 | 17.9 | 1.47 | 1.36 | 1.57 | 0.898 | 2.51 | 1.04 | 2.12 | 0.809 | 1.13 | 0.48 |
| QSSEGYDLGDR [KIAA1210_Y564_G565D] | 1.41 | 0.644 | 0.853 | 0.416 | 0.714 | 0.607 | 1.43 | 0.948 | 0.546 | 1.09 | 0.501 | 1.12 | 0.688 | 1.13 | 1.26 | 0.719 |
| QTPVLYAMLYH [MPZ_Y220_D224Y] | 1.1 | 9.9 | 6.54 | 5.59 | 4.53 | 8.03 | 1.43 | 4.4 | 5.44 | 1.89 | 8.33 | 2.58 | 3.4 | 0.917 | 1.05 | 0.44 |
| QTSTDYDIRFY [CSNK2A1_Y131_L128S] | 1.46 | 1.22 | 1.36 | 1.08 | 1.04 | 0.844 | 1.86 | 0.981 | 0.89 | 1.47 | 0.869 | 1.2 | 0.785 | 0.707 | 0.625 | 0.36 |
| QVKEQYQDVPM [PKP2_Y659_K654Q] | 1.15 | 0.555 | 0.762 | 0.835 | 0.914 | 0.86 | 1.98 | 0.65 | 0.701 | 1.12 | 0.565 | 2.19 | 0.573 | 0.945 | 0.752 | 0.883 |
| QVQQIYSDSDL [MIB1_Y376_R371Q] | 1.3 | 1.49 | 2.35 | 0.85 | 0.932 | 7.33 | 1.88 | 6.18 | 3.84 | 1.05 | 4.04 | 1.09 | 5.36 | 0.965 | 0.836 | 0.573 |
| QYPDIYAREEV [CRX_Y67_V66I] | 3.09 | 1.63 | 1.02 | 1.23 | 1.41 | 1.29 | 2.14 | 1.84 | 2.6 | 2.02 | 1.48 | 2.12 | 1.54 | 0.687 | 0.299 | 0.552 |
| QYQEKYKQVEQ [HCN4_Y531] | 1.44 | 0.908 | 0.721 | 1.17 | 1.3 | 0.576 | 1.12 | 0.821 | 0.579 | 0.858 | 0.375 | 0.493 | 0.491 | 0.958 | 0.971 | 0.743 |
| RAIGYYSATSK [FAM120A_Y328] | 0.765 | 0.622 | 0.515 | 0.438 | 0.453 | 0.563 | 0.631 | 0.502 | 0.37 | 0.73 | 1.17 | 0.639 | 0.593 | 1.24 | 1.16 | 1.83 |
| RAQIRYAQEHD [NSD1_Y1987_R1984Q] | 1.72 | 0.458 | 0.575 | 0.507 | 0.768 | 0.56 | 0.816 | 0.633 | 0.667 | 0.911 | 0.912 | 0.889 | 0.847 | 1.13 | 0.725 | 0.409 |
| RARPPYTVAAD [ANKZF1_Y572] | 0.551 | 0.4 | 0.378 | 0.39 | 0.458 | 0.443 | 0.591 | 0.35 | 0.45 | 0.58 | 0.418 | 0.466 | 0.349 | 1.27 | 1.14 | 0.933 |
| RCLKDYGEFEV [GINS1_Y156] | 1.1 | 0.5 | 0.626 | 0.399 | 0.82 | 1.16 | 1.13 | 0.677 | 0.635 | 1.45 | 0.524 | 1.12 | 1.19 | 0.979 | 0.888 | 0.685 |
| RDLTDYLMKIL [ACTA1_Y190] | 1.09 | 0.58 | 0.529 | 0.539 | 0.896 | 0.581 | 1.21 | 0.554 | 0.551 | 1.16 | 0.477 | 0.791 | 0.613 | 1.43 | 1.37 | 1.15 |
| REEKNYKHKET [BCLAF1_Y459_L461H] | 0.829 | 0.422 | 0.55 | 0.635 | 0.431 | 0.647 | 1.45 | 0.436 | 0.53 | 0.571 | 0.688 | 0.917 | 0.741 | 0.93 | 0.46 | 0.624 |
| RELSWYRGQRP [HESX1_Y106_R109Q] | 0.962 | 0.581 | 0.661 | 0.506 | 0.541 | 0.376 | 0.901 | 0.505 | 0.552 | 0.956 | 0.488 | 0.38 | 0.401 | 1.78 | 0.785 | 0.597 |
| RETSLYKACER [ASB2_Y162_P160S] | 1 | 0.59 | 0.609 | 0.548 | 0.558 | 0.762 | 0.954 | 0.481 | 0.9 | 1.31 | 0.719 | 0.85 | 0.939 | 1.14 | 0.799 | 0.857 |
| RFGKVYKAHLF [ROR2_Y488_G490A] | 0.622 | 0.476 | 0.583 | 0.72 | 0.733 | 0.846 | 0.604 | 0.57 | 0.645 | 0.39 | 0.509 | 0.594 | 0.886 | 1.03 | 0.668 | 0.613 |
| RFLERYIYNRQ [HLA-DPB1_Y57_E62Q] | 1.01 | 1.04 | 0.907 | 0.854 | 0.805 | 0.655 | 1.06 | 0.813 | 0.786 | 0.796 | 0.732 | 0.811 | 0.768 | 0.919 | 1.2 | 0.699 |
| RFLKDYGEFEV [GINS1_Y156_C152Y_YF] | 1.04 | 0.497 | 0.569 | 0.582 | 0.877 | 0.63 | 1.39 | 0.85 | 0.695 | 1.13 | 0.778 | 0.835 | 1.07 | 1.26 | 0.749 | 0.43 |
| RFLTRYIFNRE [HLA-DQB1_Y62_V59L_YF] | 1 | 0.624 | 0.567 | 0.408 | 0.674 | 0.897 | 1.17 | 0.606 | 0.452 | 1.29 | 0.578 | 0.631 | 0.706 | 0.67 | 1.17 | 0.593 |
| RGDCMYASLLG [AR_Y269_P271S] | 1.25 | 2.43 | 1.49 | 1.45 | 1.52 | 1.1 | 1.39 | 6.63 | 7.26 | 1.03 | 4.87 | 1.42 | 6 | 1.26 | 1.99 | 1.12 |
| RGEAVYSRDCV [XPC_Y676] | 0.997 | 0.764 | 0.655 | 0.718 | 1.01 | 0.472 | 1.2 | 2.95 | 2.93 | 1.01 | 0.857 | 0.692 | 2.34 | 0.788 | 0.751 | 0.522 |
| RGVTRYIFNRE [HLA-DQB1_Y62_Y58G_YF] | 2.22 | 1 | 0.766 | 0.757 | 1.27 | 0.886 | 1.85 | 0.982 | 1.08 | 1.74 | 1.59 | 1.34 | 1.38 | 0.821 | 0.512 | 0.494 |
| RHLREYQDLLN [DES_Y388] | 0.93 | 0.621 | 1.12 | 0.61 | 0.641 | 0.533 | 1.19 | 0.483 | 0.464 | 0.807 | 0.491 | 0.888 | 0.41 | 1.25 | 0.872 | 2.29 |
| RHTRSYDFTEG [FGF7_Y56_M59T_YF] | 0.557 | 0.377 | 0.492 | 0.411 | 0.382 | 0.399 | 0.695 | 0.366 | 0.387 | 0.444 | 0.35 | 0.563 | 0.351 | 0.88 | 0.611 | 0.427 |
| RHYVYYYSYLL [PTEN_Y177_R173H] | 1.89 | 2.69 | 2.13 | 7.03 | 6.42 | 1.37 | 2.26 | 1.59 | 2.49 | 3.46 | 5.71 | 1.35 | 2.18 | 1.03 | 0.906 | 0.536 |
